According to patent US20150165065A1 (AVIDBIOTICS, published 2015):

Key:
[1] = biological target: T1, integrin αVβ5 (UniProt P06756 31-992; P18084 24-719); assay: phage ELISA, coated integrin, anti-M13-HRP
T1 construct: Coated on the ELISA plate
Experimental: (§1) The phage vectors were independently transformed into NEBαF′tet competent E. coli cells. Phages produced by the transformed cells were tittered and their concentrations adjusted by dilution to 10¹³ per ml. The ability of the soluble MICA molecules in each of the phage preparations was assayed by an ELISA using the intended target proteins, integrin αVβ3 or αVβ5, as capture agents on the ELISA plate. After the respective integrins were adhered to the bottoms of the wells of the ELISA plate, the wells were washed and blocked, as well known in the field. Each sample (100 μl) of phage preparation was added to wells containing αVβ3 or αVβ5, incubated and washed. The phages captured by the integrins were detected by HRP-conjugated antibody to the M13 phage coat developed with Ultra TMB-ELISA substrate and the optical densities read.

[2] = biological target: T2, integrin αVβ3 (UniProt P06756 31-992; P05106 27-718); assay: phage ELISA, coated integrin, anti-M13-HRP
T2 construct: Coated on the ELISA plate
T2 sequence (P06756 31-992, chain 1 of 2): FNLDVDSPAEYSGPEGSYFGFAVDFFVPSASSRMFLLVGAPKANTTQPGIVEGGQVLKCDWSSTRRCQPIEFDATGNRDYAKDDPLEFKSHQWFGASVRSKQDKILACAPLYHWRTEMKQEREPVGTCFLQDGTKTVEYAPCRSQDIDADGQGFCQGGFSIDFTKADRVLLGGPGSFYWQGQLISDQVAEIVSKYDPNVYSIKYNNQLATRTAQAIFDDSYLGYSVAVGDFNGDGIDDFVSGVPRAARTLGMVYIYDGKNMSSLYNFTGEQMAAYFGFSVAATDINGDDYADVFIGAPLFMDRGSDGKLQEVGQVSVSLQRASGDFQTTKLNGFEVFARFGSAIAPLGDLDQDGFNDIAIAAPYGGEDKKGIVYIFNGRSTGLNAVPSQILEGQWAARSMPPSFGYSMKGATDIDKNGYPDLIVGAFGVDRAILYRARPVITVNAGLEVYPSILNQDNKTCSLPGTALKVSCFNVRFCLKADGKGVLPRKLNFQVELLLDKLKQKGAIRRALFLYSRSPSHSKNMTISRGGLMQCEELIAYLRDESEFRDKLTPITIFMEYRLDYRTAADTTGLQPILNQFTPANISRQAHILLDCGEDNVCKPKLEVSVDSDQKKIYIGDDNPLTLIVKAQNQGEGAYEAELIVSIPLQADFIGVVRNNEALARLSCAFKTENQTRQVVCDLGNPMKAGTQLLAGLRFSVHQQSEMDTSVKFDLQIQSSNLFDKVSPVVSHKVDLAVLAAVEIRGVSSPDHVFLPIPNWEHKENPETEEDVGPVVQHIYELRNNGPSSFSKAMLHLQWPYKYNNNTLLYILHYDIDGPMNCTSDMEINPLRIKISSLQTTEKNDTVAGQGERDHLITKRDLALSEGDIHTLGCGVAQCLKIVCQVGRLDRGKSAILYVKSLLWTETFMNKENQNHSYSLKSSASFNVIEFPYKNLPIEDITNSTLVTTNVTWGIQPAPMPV
T2 sequence (P05106 27-718, chain 2 of 2): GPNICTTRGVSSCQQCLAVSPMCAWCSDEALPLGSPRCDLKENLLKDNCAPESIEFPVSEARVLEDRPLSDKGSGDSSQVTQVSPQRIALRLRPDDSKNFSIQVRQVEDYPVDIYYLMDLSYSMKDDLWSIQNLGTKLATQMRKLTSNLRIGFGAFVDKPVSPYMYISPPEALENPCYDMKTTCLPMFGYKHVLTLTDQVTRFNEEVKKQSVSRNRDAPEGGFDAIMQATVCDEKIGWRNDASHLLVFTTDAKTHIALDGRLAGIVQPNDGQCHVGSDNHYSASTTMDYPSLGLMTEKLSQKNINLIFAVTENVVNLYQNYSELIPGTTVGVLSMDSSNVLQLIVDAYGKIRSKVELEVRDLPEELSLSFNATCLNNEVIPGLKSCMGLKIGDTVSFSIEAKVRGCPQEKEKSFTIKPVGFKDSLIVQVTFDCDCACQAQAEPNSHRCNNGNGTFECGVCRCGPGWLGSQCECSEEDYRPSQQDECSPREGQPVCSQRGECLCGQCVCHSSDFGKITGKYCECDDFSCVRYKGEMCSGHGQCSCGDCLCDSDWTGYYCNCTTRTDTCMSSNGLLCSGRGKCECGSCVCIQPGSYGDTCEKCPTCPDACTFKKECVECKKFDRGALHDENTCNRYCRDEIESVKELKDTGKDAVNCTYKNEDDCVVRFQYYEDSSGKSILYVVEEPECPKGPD
Experimental: as §1

[3] = biological target: T1, integrin αVβ5; assay: phage ELISA, coated integrin, anti-M13-HRP; remark: listed apart in the source
Experimental: (§2) The ELISA assays of the integrin target-binding of M13 phages displaying α3 domains with binding peptide inserts grafted into more than one loop were performed as follows. After the respective integrins were adhered to the bottoms of the wells of the ELISA plate, the wells were washed and blocked. Each sample (100 μl) of phage preparation was added to wells containing αVβ3 or αVβ5, incubated and washed. The phages captured by the integrins were detected by HRP-conjugated antibody to the M13 phage coat developed with Ultra TMB-ELISA substrate and the optical densities read.

[4] = biological target: T2, integrin αVβ3; assay: phage ELISA, coated integrin, anti-M13-HRP; remark: listed apart in the source
Experimental: as §2

[5] = biological target: T1, integrin αVβ5; assay: ELISA, coated integrin, anti-MICA-HRP
Experimental: (§3) ELISA assays of the integrin target-binding of soluble MICA molecules generated from pKK128-131 were performed as follows. After the respective integrins were adhered to the bottoms of the wells of the ELISA plate, the wells were washed and blocked. Each sample (100 μl) of culture supernatant was added to wells containing αVβ3 or αVβ5, incubated and washed. The soluble MICA molecules captured by the integrins were detected by HRP-conjugated antibody to human MICA developed with Ultra TMB-ELISA substrate and the optical densities read. The quantity of soluble MICA in each sample was determined by the MICA-specific ELISA.

[6] = biological target: T2, integrin αVβ3; assay: ELISA, coated integrin, anti-MICA-HRP
Experimental: as §3

[7] = biological target: T1, integrin αVβ5; assay: ELISA, coated integrin, anti-MICA-HRP; remark: listed apart in the source
Experimental: (§4) The ability of the soluble MICA molecules in each of the concentrated supernatants to bind target molecules was assayed by an ELISA using the intended target proteins, integrin αVβ3 or αVβ5, as capture agents on the ELISA plate. After the respective integrins were adhered to the bottoms of the wells of the ELISA plate, the wells were washed and blocked, as well known in the field. Each sample (100 μl) of soluble MICA produced and secreted by 293T cells was added to wells containing αVβ3 or αVβ5, incubated and washed. The soluble MICA molecules captured by the integrins were detected by HRP-conjugated antibody to human MICA developed with Ultra TMB-ELISA substrate and the optical densities read. The quantity of soluble MICA in each sample was determined by the MICA-specific ELISA. […] The ELISA signal from a non-binding, negative control MICA (generated by pSW273) was subtracted from each integrin binding signal.

[8] = biological target: T2, integrin αVβ3; assay: ELISA, coated integrin, anti-MICA-HRP; remark: listed apart in the source
Experimental: as §4

[9] = biological target: the targeted integrin; assay: cell-based or functional assay

T1 sequence (P06756 31-992, chain 1 of 2): as the sequence (P06756 31-992, chain 1 of 2) above
T1 sequence (P18084 24-719, chain 2 of 2): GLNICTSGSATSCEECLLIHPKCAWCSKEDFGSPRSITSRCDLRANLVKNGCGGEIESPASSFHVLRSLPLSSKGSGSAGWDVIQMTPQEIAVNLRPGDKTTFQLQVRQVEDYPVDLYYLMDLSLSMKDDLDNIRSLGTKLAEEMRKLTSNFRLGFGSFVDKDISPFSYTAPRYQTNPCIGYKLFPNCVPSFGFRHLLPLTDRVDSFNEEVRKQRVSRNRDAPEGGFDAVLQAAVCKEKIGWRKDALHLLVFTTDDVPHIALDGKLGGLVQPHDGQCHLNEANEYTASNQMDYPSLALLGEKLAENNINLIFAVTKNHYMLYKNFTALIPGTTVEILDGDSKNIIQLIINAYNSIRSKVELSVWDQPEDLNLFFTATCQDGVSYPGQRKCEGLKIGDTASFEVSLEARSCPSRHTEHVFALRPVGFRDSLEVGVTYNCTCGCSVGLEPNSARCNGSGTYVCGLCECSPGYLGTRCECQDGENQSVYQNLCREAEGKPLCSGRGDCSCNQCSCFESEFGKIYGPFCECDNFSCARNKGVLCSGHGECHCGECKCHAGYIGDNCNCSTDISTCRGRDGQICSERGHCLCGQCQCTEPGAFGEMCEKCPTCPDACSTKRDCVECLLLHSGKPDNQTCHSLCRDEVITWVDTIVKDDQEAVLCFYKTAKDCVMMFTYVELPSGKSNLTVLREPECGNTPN

| Binder | αvβ5 signal [3] [OD] | αvβ3 signal [4] [OD] | αvβ5 signal [5] [OD] | αvβ5 signal/ng [5] [signal/ng MICA] | αvβ3 signal [6] [OD] | αvβ3 signal/ng [6] [signal/ng MICA] | also measured |
| --- | --- | --- | --- | --- | --- | --- | --- |
| M13 phage pKK96 displaying MICA α3 domain with loop 1 insert 5.1 (designed binder, also called 1-5.1; not shown: C-terminal portion of M13 gene III protein, fused at codon position 198) TVPPMVNVTVTRGDTFTQSVTCRASGFYPWNITLSWRQDGVSLSHDTQQWGDVLPDGNGTYQTWVATRICQGEEQRFTCYMEHSGNHSTHPVPSGK | – | – | – | – | – | – | αvβ5 signal [1]: 2.42 OD; αvβ3 signal [2]: 1.64 OD |
| M13 phage pKK136 displaying MICA α3 domain with loop 1 insert 5.1sp and loop 3 insert 3.2sp (designed binder, also called 1-5.1sp/3-3.2sp; not shown: C-terminal portion of M13 gene III protein, fused at codon position 198) TVPPMVNVTSGGSGGGSVTRGDTFTQSSGGSGGGVTCRASGFYPWNITLSWRQDGVSLSHDTQQWGDVLPDGNGTYQTWVATRISGGSGGGSTSRGDHPRTQSGGSGGGCYMEHSGNHSTHPVPSGK | 4.28 | 2.46 | – | – | – | – | – |
| M13 phage pKK139 displaying MICA α3 domain with loop 1 insert 5.1sp and loop 3 insert 5.1spNH (designed binder, also called 1-5.1sp/3-5.1spNH; not shown: C-terminal portion of M13 gene III protein, fused at codon position 198) TVPPMVNVTSGGSGGGSVTRGDTFTQSSGGSGGGVTCRASGFYPWNITLSWRQDGVSLSHDTQQWGDVLPDGNGTYQTWVATRISGGSGGGSVTRGDTFTQSSGGSGGGCYMEHSGNHSTHPVPSGK | 5.36 | 2.48 | – | – | – | – | – |
| M13 phage pKK138 displaying MICA α3 domain with loop 1 insert 5.1sp and loop 3 insert 5.3sp (designed binder, also called 1-5.1sp/3-5.3sp; not shown: C-terminal portion of M13 gene III protein, fused at codon position 198) TVPPMVNVTSGGSGGGSVTRGDTFTQSSGGSGGGVTCRASGFYPWNITLSWRQDGVSLSHDTQQWGDVLPDGNGTYQTWVATRISGGSGGGSHLARGDDLTYSGGSGGGCYMEHSGNHSTHPVPSGK | 2.75 | 0.886 | – | – | – | – | – |
| soluble MICA generated by pSW273 (wild type loops, negative control) (ligand, Secreted by 293T cells; six His between signal peptide and residue 1; made from pSW267 (Glu125); also called WT) HHHHHHEPHSLRYNLTVLSWDGSVQSGFLTEVHLDGQPFLRCDRQKCRAKPQGQWAEDVLGNKTWDRETRDLTGNGKDLRMTLAHIKDQKEGLHSLQEIRVCEIHEDNSTRSSQHFYYDGELFLSQNLETEEWTMPQSSRAQTLAMNVRNFLKEDAMKTKTHYHAMHADCLQELRRYLKSGVVLRRTVPPMVNVTRSEASEGNITVTCRASGFYPWNITLSWRQDGVSLSHDTQQWGDVLPDGNGTYQTWVATRICQGEEQRFTCYMEHSGNHSTHPVPSGK | – | – | 0.1 | 6.8 | 0.099 | 6.73 | binding result [7]: no binding; binding result [8]: no binding |
| soluble MICA generated from pKK131 (loop 1 extended 5.1sp, loop 3 extended 5.1spNH) (designed binder) HHHHHHEPHSLRYNLTVLSWDGSVQSGFLTEVHLDGQPFLRCDRQKCRAKPQGQWAEDVLGNKTWDRETRDLTGNGKDLRMTLAHIKDQKEGLHSLQEIRVCEIHEDNSTRSSQHFYYDGELFLSQNLETEEWTMPQSSRAQTLAMNVRNFLKEDAMKTKTHYHAMHADCLQELRRYLKSGVVLRRTVPPMVNVTSGGSGGGSVTRGDTFTQSSGGSGGGVTCRASGFYPWNITLSWRQDGVSLSHDTQQWGDVLPDGNGTYQTWVATRISGGSGGGSVTRGDTFTQSSGGSGGGCYMEHSGNHSTHPVPSGK | – | – | – | – | – | – | green fluorescent signal from live MCF cells; 64 pg targeted MICA, NK 5:1 [9]: 5180 fluorescence; green fluorescent signal from live MCF cells; 64 pg targeted MICA, NK 10:1 [9]: 3700 fluorescence; green fluorescent signal from live MCF cells; 64 pg targeted MICA, no NK cells [9]: 5030 fluorescence; green fluorescent signal from live MCF cells; 128 pg targeted MICA, NK 5:1 [9]: 3460 fluorescence; green fluorescent signal from live MCF cells; 128 pg targeted MICA, NK 10:1 [9]: 2190 fluorescence; red fluorescent signal from (dead) MCF cells; 64 pg targeted MICA, NK 5:1 [9]: 27 fluorescence; red fluorescent signal from (dead) MCF cells; 64 pg targeted MICA, NK 10:1 [9]: 31 fluorescence; red fluorescent signal from (dead) MCF cells; 64 pg targeted MICA, no NK cells [9]: 19.9 fluorescence; red fluorescent signal from (dead) MCF cells; 128 pg targeted MICA, NK 5:1 [9]: 25.6 fluorescence; red fluorescent signal from (dead) MCF cells; 128 pg targeted MICA, NK 10:1 [9]: 41 fluorescence |
| soluble MICA generated from pKK128 (loop 1 extended 5.1sp, loop 3 extended 3.2sp) (designed binder, From pKK115 (from pKK46: His6, Glu125); secreted by 293T cells; also called 1-5.1sp/3-3.2sp) HHHHHHEPHSLRYNLTVLSWDGSVQSGFLTEVHLDGQPFLRCDRQKCRAKPQGQWAEDVLGNKTWDRETRDLTGNGKDLRMTLAHIKDQKEGLHSLQEIRVCEIHEDNSTRSSQHFYYDGELFLSQNLETEEWTMPQSSRAQTLAMNVRNFLKEDAMKTKTHYHAMHADCLQELRRYLKSGVVLRRTVPPMVNVTSGGSGGGSVTRGDTFTQSSGGSGGGVTCRASGFYPWNITLSWRQDGVSLSHDTQQWGDVLPDGNGTYQTWVATRISGGSGGGSTSRGDHPRTQSGGSGGGCYMEHSGNHSTHPVPSGK | – | – | 1 | 28.3 | 0.811 | 22.9 | – |
| soluble MICA generated from pKK130 (loop 1 extended 5.1sp, loop 3 extended 5.3sp) (designed binder, From pKK115 (from pKK46: His6, Glu125); secreted by 293T cells; also called 1-5.1sp/3-5.3sp) HHHHHHEPHSLRYNLTVLSWDGSVQSGFLTEVHLDGQPFLRCDRQKCRAKPQGQWAEDVLGNKTWDRETRDLTGNGKDLRMTLAHIKDQKEGLHSLQEIRVCEIHEDNSTRSSQHFYYDGELFLSQNLETEEWTMPQSSRAQTLAMNVRNFLKEDAMKTKTHYHAMHADCLQELRRYLKSGVVLRRTVPPMVNVTSGGSGGGSVTRGDTFTQSSGGSGGGVTCRASGFYPWNITLSWRQDGVSLSHDTQQWGDVLPDGNGTYQTWVATRISGGSGGGSHLARGDDLTYSGGSGGGCYMEHSGNHSTHPVPSGK | – | – | 0.832 | 26.9 | 0.606 | 19.6 | – |
